Experiment [1] has as its target T1, V-C1-C2 construct of human RAGE (human, UniProt Q15109 23-404).
T1 construct: also called ABC construct; not shown: eGFP of the vector pEGFP-N2, fused in frame at the C-terminus
Nature of the experiment: binding to cells expressing RAGE domain constructs fused to eGFP. The text has this:
The extracellular portion of the RAGE protein contains three domains with similarities to the IgG family. The three domains are V, C1, and C2 (variable, constant 1, and constant 2, respectively). RS07 binds the V domain while RS15 binds an integrated V-C1 domain (FIG. 2B). RAGE constructs used in the present exemplary embodiment include a V-C1-C2 construct starting at amino acid 23 of SEQ ID NO:1 (AQNITA . . . ), immediately following the native signal sequence. The C1-C2 construct starts at amino acid 117 of SEQ ID NO:1 (VYQIPG . . . ), and the C2 construct starts at amino acid 249 of SEQ ID NO:1 (VAPGG . . . ). Domains were predicted on Genbank and by crystal structure. To map antibody binding to individual RAGE domains, the IL2 signal sequence was cloned into pEGFP-N2, into which portions of RAGE were cloned in-frame with IL2 signal sequence (IL2ss) at the 5′ end and in-frame with eGFP at the 3′ end. In addition to the extracellular portions of RAGE, all constructs contain the RAGE transmembrane and C-terminal regions, so the GFP signal should be intracellular, while the IL2ss ensures the RAGE V, C1, and/or C2 motifs are extracellular, and accessible to antibodies. The ABC construct in FIG. 2B includes the V, C1, and C2 domains, and initiates at aa 23 of SEQ ID NO: 1. The BC construct in FIG. 2B includes the C1 and C2 domains, and initiates at aa 116 of SEQ ID NO: 1. […]

The target in another experiment is T2, Human RAGE (human, UniProt Q15109 23-404).
T2 construct: also called receptor for advanced glycation end products; AGER
T2 sequence (Q15109 23-404): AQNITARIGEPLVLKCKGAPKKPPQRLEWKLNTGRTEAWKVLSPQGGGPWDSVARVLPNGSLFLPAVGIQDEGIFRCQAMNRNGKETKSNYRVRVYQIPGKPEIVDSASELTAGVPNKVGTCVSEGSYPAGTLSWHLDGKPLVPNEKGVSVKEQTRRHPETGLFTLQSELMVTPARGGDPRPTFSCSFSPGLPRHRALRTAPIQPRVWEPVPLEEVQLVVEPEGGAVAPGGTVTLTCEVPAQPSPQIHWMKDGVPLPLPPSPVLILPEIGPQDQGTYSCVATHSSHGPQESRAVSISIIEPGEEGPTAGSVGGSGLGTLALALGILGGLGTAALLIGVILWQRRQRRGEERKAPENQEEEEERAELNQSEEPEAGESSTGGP
In words: flow cytometry on human colorectal cancer samples. Background: In flow cytometry, cells or beads pass a laser one at a time.

T1 sequence (Q15109 23-404): as above

B1: RS15 (antibody, V domains shown)
VH: QVQLQQSGAELVRPGTSLKVSCKASGYAFTNYLIEWVNQRPGQGLEWIGVINPGSGGTHYNEKFKGKATLTADKSSSTAYMQLSSLTSDDSAIYFCARSRAVRAMDYWGQGTSVTV
VL: DIVMTQSQKFMSTSVGDRVSVTCKASQNVGTNVAWYQQKPGQSPKSLIYSASYRYSGVPDRFTGSGSGTDFTLTISNVQSEDLAEYFCQQYNSYFFTFGAGTKLELKR
notes: Mouse monoclonal IgG from a hybridoma (BALB/c immunised with human RAGE extracellular domain); also called RFT01; anti-RAGE (RS15)
On to B1, for which the binding result (in experiment [1]; in the experiment with Human RAGE) was “binds” throughout.

Values taken from patent publication US20250011424A1 (SALVARX, published 2025).
